This note sets out measurements from paper PMC12855940.

The target of this data set is tau 2N4R (tau-441) wild type (human, UniProt P10636-8 1-441). The data set is described as follows: EMSA. (In general: A gel shift assay detects complexes by their altered migration in electrophoresis.)

B1: 24-bp dsDNA (dsDNA)
DNA 1: TCGACACGGAAATGTTGAATACTA
DNA 2: TAGTATTCAACATTTCCGTGTCGA
In the case of B1, the binding result is “binds”.
